Assay results reported in patent publication US10813788B2, “Implantable therapeutic device” (ForSight Vision4, Inc., priority 2009, dated 2020).
“And” between values parts separate entries of the source, which are not always exact repeats. Identical values can stand only once. Like-named read-outs stand apart in the source and are kept apart here.

Key:
[1] = human eye; cited from earlier work
[2] = tested on: laser photocoagulation treatment-induced Grade IV choroidal neovascularization (CNV) lesions; conditions: intravitreal injection at all doses tested, cynomolgus monkeys; Z. Yao et al., ARVO 2009; cited from earlier work
[3] = Osmolarity of saline and commercial formulations (Table 1B, calculations); format: physicochemical; conditions: Summary of Calculations
Source text: The formulation of therapeutic agent injected into therapeutic device 100 may comprise many known formulations of therapeutic agents, and the formulation therapeutic agent comprises an osmolarity suitable for release for an extended time from device 100.
The vitreous humor of the eye comprises an osmolarity of about 290 mOsm to about 320 mOsm. Formulations of therapeutic agent having an osmolarity from about 280 mOsm to about 340 mOsm are substantially isotonic and substantially iso-osmotic with respect to the vitreous humor of the eye. Although the formulations listed in Table 1B are substantially iso-osmotic and isotonic with respect to the vitreous of the eye and suitable for injection into the therapeutic device, the formulation of the therapeutic agent injected into the therapeutic device can be hypertonic (hyper-osmotic) or hypotonic (hypo-osmotic) with respect to the tonicity and osmolarity of the vitreous. […]

[4] = Measured release of Lucentis through porous frit structures, Example 15B; format: physicochemical; conditions: 10 mg/mL Lucentis, 30 uL, 37 C
Source text: All porous frit structures are 316L SS, Mott Corporation.
The diameter ranged from 0.031″ to 0.038″, and the length ranged from 0.029 to 0.049. The media grade ranged from 0.1 to 0.3, and the RRI ranged from 0.014 to 0.090.
Although some of the measurements were excluded, this exclusion is appropriate and associated with in vitro testing conditions that differ substantially from the in vivo model. Five devices were excluded due to bubble growth (10%), and four were excluded due to receiver volume issues at one timepoint for that device (8%). The latter can be an experimental error associated with the volume of the receiver below the assumed value due to evaporation from inadequately sealed vials or due to pipetting error. In some instances the in vitro experimental test apparatus can be sensitive to bubble formation that may differ substantially from the in vivo model as the living eye can resorb oxygen from the therapeutic devices. Bubbles can form as receiver fluid is heated to 37° C. and gas concentrations are greater than their solubilities at 37° C. To minimize the occurrence of bubble formation, receiver solutions were degassed before insertion of the devices.

[5] = Measured release of ranibizumab 40 and 100 mg/mL from a population of devices, Example C; format: physicochemical; conditions: at 15 weeks, 25 uL, RRI 0.02
Protocol: Therapeutic devices having stainless steel porous frit structures and formulations were prepared in accordance with Examples A and B. The devices had volumes of 25 uL and an RRI of 0.02.
Pressure decay tests of the assembled porous frit structures were conducted as described herein.
Eighteen devices were injected with the 100 mg/mL formulation and 18 devices were injected with the 40 mg/mL formulation. However, measurements of some devices were stopped for other assays every 4 months so only 6 devices for each formulation have release data through 180 days. The rate of release was measured for 16 weeks, and the amount release after each 2 week interval determined. […] The data indicates a measured rate of 3.5 and 8.1 ug/day at 15 weeks, for the 40 and 100 mg/mL formulation injections, respectively.

[6] = tested on: size of the lesion / retinal thickness in wet AMD (OCT); format: in vivo, human; conditions: for Treatment Effect Observed?: OCT decrease in size of the lesion
Source text: OCT (Optical Coherence Tomography) imaging was used to assess the condition of the region of the macula at the back surface of the treated eye. The OCT technique relies on the measurement of certain properties of light (e.g. echo time, intensity of reflection) that has been directed at the area of study and can measure very small amounts of reflected light. Because these cellular features are essentially transparent it is possible to use OCT methodology to generate three dimensional representations of the area.
The regions of interest were analyzed with a two dimensional representation of the cross section of the retinal wall at one longitudinal scan location of the OCT image. In these “OCT scan” images is it possible to interrogate very local areas of interest more specifically. The OCT scans were carefully selected to directly compare the thickness and anatomical structure of specific sites within a lesion, pre and post treatment, for the purpose of assessing the effect of injected drug including a reduction in sub-retinal fluid.
The OCT images were measured the day after injection and at 2-3 days post injection. […]

[7] = Measured release of ranibizumab 40 and 100 mg/mL from devices with porous titanium frit, device half life 100 days, Example A; format: physicochemical; conditions: for RRI (mm), Mean: 25 uL device, titanium frit about 0.04 in thick, OD about 0.03 in; for 40 mg/mL Rate, Average / 100 mg/mL Rate, Average: devices with 100 day half life, unit not given
Source text: No. 2010/0015157, entitled “Antibody Formulations”, the full disclosure of which is incorporated herein by reference.
Devices were fabricated using the following method. A vessel was made from two subassemblies and a porous frit structure as described herein. […] The intended RRI was about 0.02 based on gas flow measurements and manufacturing as described herein. The implantable devices were manufactured in accordance with the teachings as described herein.
Devices were filled with formulation using a 33 G needle (TSK) and a standard tuberculin 1-cc syringe (BD). Excess liquid that had exited the porous sintered frit structure during filling was removed by use of a lab tissue and submerging in phosphate buffered saline (PBS, Sigma) and 0.02% sodium azide as a preservative. Each device was suspended in the center of a 1.5 mL microcentrifuge tube by use of a fixture. The tube was filled with 0.5 mL receiver fluid; i.e., PBS that had been degassed to minimize bubble formation. At selected times, the device was removed from the receiver fluid and placed in a new tube containing fresh receiver fluid. […] For the later time points, the sample concentrations were higher and concentration was determined by UV (Perkin Elmer Lambda 35). Drug release rates were calculated from measured concentration, the volume of the receiver fluid and the duration of the collection interval. Drug release rate profiles were plotted at the average elapsed time for each collection interval. RRI was determined via a least squares fit to the model.
Each formulation was filled into ten devices. Some devices were stopped at 3 and 4 months (n=3 each), leaving four that underwent drug release testing for 180 days.

[8] = Measured release of ranibizumab 100 mg/mL from devices with porous titanium frit, device half life 250 days, Example B; format: physicochemical; conditions: for 100 mg/mL Rate, Average: devices with 250 day half life, n = 5
Protocol: The intended RRI was about 0.008 based on gas flow measurements and manufacturing as described herein. The therapeutic device reservoir volume was about 25 uL.
The formulation was filled into five devices and all underwent drug release testing for 180 days.

[9] = cited from earlier work; for half-life in the vitreous: rabbit and monkey
[10] = Solubility of triamcinolone acetonide; conditions: suspension, in the buffer at 37° C. when implanted
[11] = amino acid side chain; cited from earlier work
[12] = Measured release of Avastin through porous frit structures, Examples 12-13; format: physicochemical
[13] = as above; format: physicochemical; conditions: for RRI (mm): single devices; for determined RRI: reservoir 20 uL
Source text: For the analysis of data up to 130 days, the first data point is excluded from the fit because the model assumes the maximum delivery rate occurs at time zero while there is some startup time often associated with measured release profiles. The startup time may be related to the time it takes to displace all of the air in the frit. Use of different techniques to displace the air in the frit may reduce the startup time.

[14] = RRI for Avastin of porous frits characterised by gas flow, Example 17C (Table 7); format: physicochemical
Source text: The flow through the porous structure can be measured with a decay time of the gas pressure, for example with the flow rate across the porous structure with a pressure drop across the porous frit structure, as described herein. The flow rate and RRI can be determined based on the media grade of the material, for example as commercially available media grade material available from Mott Corp. The therapeutic agent can be measured through the porous structure, or a similar test molecule. […] Based on the teachings described herein, a person of ordinary skill in the art can conduct experiments to determine empirically the correspondence of flow rate with a gas to the release rate of the therapeutic agent.

[15] = Frit #3 (0.038 x 0.029 in), reservoir 37 uL, up to 130 days

## ranibizumab [Lucentis]
[1]
  half-life in the vitreous: ~220 h
[2]
  development of Grade IV CNV lesions: completely inhibited
[3]
  Osm: 0.289 M
[4]; frit 0.031 x 0.049 in, media grade 0.1 um, 2 replicates
  RRI (mm): 0.014 mm
[4]; frit 0.031 x 0.049 in, media grade 0.2 um, 12 replicates
  RRI (mm): 0.021 mm
[4]; frit 0.038 x 0.029 in, media grade 0.1 um, 5 replicates
  RRI (mm): 0.039 mm
[4]; frit 0.038 x 0.029 in, media grade 0.2 um, 14 replicates
  RRI (mm): 0.061 mm
[4]; frit 0.038 x 0.029 in, media grade 0.3 um, 6 replicates
  RRI (mm): 0.090 mm
[5]; 40 mg/mL formulation
  measured rate of release: 3.5 µg/day
[5]; 100 mg/mL formulation
  measured rate of release: 8.1 µg/day
[6]; minimum inhibitory concentration in vivo in human patients, indicated by the low dose study
  MIC for a sustained release device: ≤ 1 ug per ml
[6]; single patient, lowest dose administered 10 μg intravitreal
  Treatment Effect Observed?: Yes
[6]; single patients, lowest dose administered 5 μg intravitreal
  Treatment Effect Observed?: Yes
[6]; single patients, lowest dose administered 20 μg intravitreal
  Treatment Effect Observed?: Yes
[7]; 40 mg/mL formulation
  RRI (mm), Mean: 0.02 mm and 0.024 mm
[7]; 100 mg/mL formulation
  RRI (mm), Mean: 0.02 mm and 0.021 mm
[7]; Day 90, n = 7
  40 mg/mL Rate, Average: 5.52
  100 mg/mL Rate, Average: 9.51
[7]; Day 180, n = 4
  40 mg/mL Rate, Average: 2.42
  100 mg/mL Rate, Average: 5.13
[8]; 100 mg/mL formulation, 25 uL device, titanium frit 0.031 in thick, OD 0.031
  RRI (mm), Mean: 0.008 mm
[8]; Day 90
  100 mg/mL Rate, Average: 5.6 µg/day and 5.59 µg/day
[8]; Day 180
  100 mg/mL Rate, Average: 4.51 µg/day
[9]; half-life measured for the monkey, parameter of Simulations 1-5 (Table 4A)
  Half-life: 63.1 h
[9]
  half-life in the vitreous: two to four
[9]; listed as ranibizumab
  half-life in the vitreous: approximately 3 days

## CC1(C)O[C@@H]2C[C@H]3[C@@H]4CCC5=CC(=O)C=C[C@]5(C)[C@@]4(F)[C@@H](O)C[C@]3(C)[C@]2(C(=O)CO)O1 [triamcinolone acetonide]
[10]
  solubility: approximately 19 ug/mL

## N[C@@H](CS)C(=O)O [L-Cysteine]
[11]
  pKa of side chain: 8.28

## bevacizumab [Avastin]
[12]; Frit #2 (0.031 x 0.049 in), reservoir 37 uL, up to 45 days
  RRI (mm), Mean: 0.02 mm and 0.020 mm
[12]; Frit #2, reservoir 37 uL, up to 45 days
  RRI (mm), Mean for SS < 2: 0.014 mm
[12]; Frit #3 (0.038 x 0.029 in), reservoir 37 uL, up to 45 days
  RRI (mm), Mean: 0.034 mm
[12]; [15]
  RRI (mm), Mean: 0.035 mm
[12]; Frit #3 (0.038 x 0.029 in, media grade 0.2 um), 25 mg/mL Avastin, reservoir 37 uL, 37 C, up to 45 days, single devices
  RRI (mm): 0.027 mm and 0.034 mm and 0.033 mm and 0.044 mm and 0.030 mm and 0.043 mm
[12]; Frit #3, reservoir 37 uL, up to 45 days
  RRI (mm), Mean for SS < 2: 0.030 mm
[12]; Frit #5, media grade 0.1, reservoir 20 uL, to about 90 days, FIG. 24A-1
  release rate (RRI): 0.038 mm
[12]; Frit #6, reservoir 20 uL, to about 90 days, FIG. 23A-1
  RRI: 0.053 mm
[3]
  Osm: 0.182 M
[13]; Frit #2 (0.031 x 0.049 in), reservoir 37 uL, up to 130 days
  RRI (mm), Mean: 0.024 mm
[13]; Frit #2, reservoir 37 uL, up to 130 days
  RRI (mm), Mean for SS < 2: 0.014 mm
[13]; [15]
  RRI (mm): 0.031 mm and 0.030 mm and 0.029 mm and 0.034 mm and 0.044 mm and 0.045 mm
[13]; Frit #3, reservoir 37 uL, up to 130 days
  RRI (mm), Mean for SS < 2: 0.030 mm
[13]; Frit #5 (0.038 x 0.029 in, media grade 0.1 um), 25 mg/mL Avastin, 37 C, FIG. 24A
  determined RRI: 0.03
[13]; Frit #6 (0.038 x 0.029 in, media grade 0.2 um), 25 mg/mL Avastin, 37 C, FIG. 23A
  determined RRI: 0.05 mm
[13]; Table 5A: 16 uL reservoir, 25 mg/mL Avastin, Frit #2 (0.031 x 0.049 in, media grade 0.2 um, 316L SS), 37 C
  RRI (mm): 0.018 mm and 0.022 mm
[13]; Table 5A: 33 uL reservoir, 25 mg/mL Avastin, Frit #2 (0.031 x 0.049 in, media grade 0.2 um, 316L SS), 37 C
  RRI (mm): 0.015 mm and 0.018 mm
[14]; Table 7: media grade 0.1, O.D. 0.038 in, length 0.029 in
  RRI: 0.014
[14]; Table 7: media grade 0.2, O.D. 0.031 in, length 0.049 in
  RRI: 0.019
[14]; Table 7: media grade 0.2, O.D. 0.038 in, length 0.029 in
  RRI: 0.034 and 0.033

## N[C@@H](CC(=O)O)C(=O)O [L-Aspartic Acid]
[11]
  pKa of side chain: 3.8

## N=C(N)NCCC[C@H](N)C(=O)O [L-Arginine]
[11]
  pKa of side chain: 12.0
